From the supplement of paper PMC9112550, “Optimization of the antimicrobial peptide Bac7 by deep mutational scanning” (BMC Biology, 2022)

Test system: Escherichia coli TOP10
Test: shrunken log2 fold change of peptide-encoding DNA abundance (4.5 h post-induction vs induction); higher = less antimicrobial activity (less host growth inhibition)
Conditions: time post-induction: 4.5 h; library: site-saturation at positions 5, 18, 19, 20
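Further: peptides expressed intracellularly from a pBAD plasmid library in pooled LB shake-flask culture, induced with 0.3% L-arabinose, DNA abundance read by NGS, three biological replicates, DESeq2 with apeglm shrinkage.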

Sequence | shrunken log2 fold change
RRIRQRPPRLPRPRPRPKDEPRP | 0.0571
RRIRRRPPRLPRPRPRPTVTPRP | 0.144
RRIRTRPPRLPRPRPRPLGHPRP | -0.459
RRIRVRPPRLPRPRPRPHTSPRP | -0.643
RRIRMRPPRLPRPRPRPLTTPRP | 1.06
RRIRIRPPRLPRPRPRPDCCPRP | 0.000204
RRIRCRPPRLPRPRPRPAYFPRP | -0.361
RRIRHRPPRLPRPRPRPNWLPRP | -0.165
RRIRTRPPRLPRPRPRPKYRPRP | -0.135
RRIRARPPRLPRPRPRPQKQPRP | -0.00111
RRIRFRPPRLPRPRPRPCIFPRP | -0.361
RRIRARPPRLPRPRPRPGQAPRP | -0.0216
RRIRDRPPRLPRPRPRPPQAPRP | 0.268
RRIRVRPPRLPRPRPRPTINPRP | -0.286
RRIRYRPPRLPRPRPRPRIPPRP | -0.353
RRIRDRPPRLPRPRPRPPPTPRP | 0.973
RRIRHRPPRLPRPRPRPVPIPRP | 0.0935
RRIRIRPPRLPRPRPRPFYCPRP | -0.633
RRIRIRPPRLPRPRPRPDNCPRP | -0.162
RRIRLRPPRLPRPRPRPINIPRP | -0.735
RRIRTRPPRLPRPRPRPDLDPRP | 0.145
RRIRYRPPRLPRPRPRPLHRPRP | -0.116
RRIRFRPPRLPRPRPRPFNSPRP | -0.0372
RRIRARPPRLPRPRPRPPQPPRP | 1.03
RRIRKRPPRLPRPRPRPPNFPRP | 0.0909

Sequence | shrunken log2 fold change
RRIRERPPRLPRPRPRPCNNPRP | -0.768
RRIRPRPPRLPRPRPRPNQQPRP | 0.0352
RRIRWRPPRLPRPRPRPQKSPRP | 0.0128
RRIRGRPPRLPRPRPRPKLNPRP | 0.69
RRIRYRPPRLPRPRPRPRFFPRP | -0.0565
RRIRERPPRLPRPRPRPWIPPRP | 0.0136
RRIRFRPPRLPRPRPRPHEDPRP | 0.0846
RRIRQRPPRLPRPRPRPMLHPRP | -0.0433
RRIRSRPPRLPRPRPRPESYPRP | 1.29
RRIRLRPPRLPRPRPRPIQIPRP | 0.03
RRIRSRPPRLPRPRPRPMAMPRP | 0.0808
RRIRWRPPRLPRPRPRPDHRPRP | -0.0843
RRIRERPPRLPRPRPRPCWPPRP | 0.0214
RRIRTRPPRLPRPRPRPSCQPRP | -0.21
RRIRERPPRLPRPRPRPDVMPRP | 0.0164
RRIRDRPPRLPRPRPRPPLCPRP | 0.223
RRIRWRPPRLPRPRPRPTKWPRP | -0.126
RRIRWRPPRLPRPRPRPLRLPRP | 0.804
RRIRIRPPRLPRPRPRPMYAPRP | -0.191
RRIRIRPPRLPRPRPRPAEIPRP | -0.484
RRIRTRPPRLPRPRPRPMQSPRP | -0.349
RRIRHRPPRLPRPRPRPWCHPRP | -0.00107
RRIRTRPPRLPRPRPRPPPTPRP | 0.828
RRIRGRPPRLPRPRPRPVQWPRP | 0.171
RRIRPRPPRLPRPRPRPLCQPRP | -0.116

Sequence | shrunken log2 fold change
RRIRPRPPRLPRPRPRPKDMPRP | -0.0163
RRIRWRPPRLPRPRPRPRPRPRP | 0.974
RRIRNRPPRLPRPRPRPVEAPRP | 0.277
RRIRFRPPRLPRPRPRPIKYPRP | -0.335
RRIRHRPPRLPRPRPRPHPEPRP | 0.0129
RRIRHRPPRLPRPRPRPRWCPRP | 0.0475
RRIRMRPPRLPRPRPRPFILPRP | -0.41
RRIRWRPPRLPRPRPRPEEDPRP | 0.00839
RRIRVRPPRLPRPRPRPENMPRP | -0.0886
RRIRMRPPRLPRPRPRPHIVPRP | 0.0532
RRIRWRPPRLPRPRPRPYHQPRP | -0.0735
RRIRTRPPRLPRPRPRPYSWPRP | -0.118
RRIRNRPPRLPRPRPRPIIWPRP | -0.139
RRIRNRPPRLPRPRPRPMKFPRP | -0.000903
RRIRARPPRLPRPRPRPIFSPRP | -0.00994
RRIRYRPPRLPRPRPRPYTFPRP | 0.041
RRIRNRPPRLPRPRPRPMSCPRP | -0.0294
RRIRCRPPRLPRPRPRPSGMPRP | -0.35
RRIRMRPPRLPRPRPRPQPRPRP | 1.22
RRIRLRPPRLPRPRPRPCMYPRP | -0.674
RRIRMRPPRLPRPRPRPRAQPRP | 0.232
RRIRTRPPRLPRPRPRPIWTPRP | 0.00694
RRIRMRPPRLPRPRPRPELYPRP | 0.0658
RRIRHRPPRLPRPRPRPQTRPRP | -0.148
RRIRGRPPRLPRPRPRPCWGPRP | 0.157

Sequence | shrunken log2 fold change
RRIRKRPPRLPRPRPRPNHRPRP | -0.334
RRIRGRPPRLPRPRPRPSYFPRP | -0.0109
RRIRPRPPRLPRPRPRPIEVPRP | -0.113
RRIRGRPPRLPRPRPRPRKGPRP | 0.148
RRIRRRPPRLPRPRPRPSTPPRP | 0.225
RRIRYRPPRLPRPRPRPKKGPRP | -0.444
RRIRNRPPRLPRPRPRPCKTPRP | -0.129
RRIRFRPPRLPRPRPRPECEPRP | 0.639
RRIRPRPPRLPRPRPRPAVQPRP | 0.168
RRIRPRPPRLPRPRPRPFLYPRP | -0.138
RRIRSRPPRLPRPRPRPDSIPRP | 0.0681
RRIRKRPPRLPRPRPRPHSAPRP | 0.246
RRIRMRPPRLPRPRPRPTMVPRP | 0.263
RRIRRRPPRLPRPRPRPGLGPRP | 0.55
RRIRMRPPRLPRPRPRPEWEPRP | -0.00306
RRIRNRPPRLPRPRPRPQQNPRP | 0.00594
RRIRRRPPRLPRPRPRPYNNPRP | -0.76
RRIRKRPPRLPRPRPRPLRYPRP | 0.227
RRIRHRPPRLPRPRPRPPVEPRP | 0.126
RRIRVRPPRLPRPRPRPHGTPRP | -0.408
RRIRSRPPRLPRPRPRPCWFPRP | -0.0822
RRIRWRPPRLPRPRPRPSYPPRP | -0.254
RRIRYRPPRLPRPRPRPKYQPRP | -0.213
RRIRCRPPRLPRPRPRPVVIPRP | -0.223
RRIRCRPPRLPRPRPRPQACPRP | 0.00494

Sequence | shrunken log2 fold change
RRIRIRPPRLPRPRPRPHRTPRP | -0.125
RRIRGRPPRLPRPRPRPNYRPRP | 0.0016
RRIRMRPPRLPRPRPRPGGHPRP | 0.516
RRIRVRPPRLPRPRPRPGFYPRP | -0.345
RRIRKRPPRLPRPRPRPGWIPRP | 1.07
RRIRIRPPRLPRPRPRPYNKPRP | -0.783
RRIRMRPPRLPRPRPRPQSQPRP | 0.226
RRIRHRPPRLPRPRPRPCNCPRP | 0.0668
RRIRWRPPRLPRPRPRPFRRPRP | -0.134
RRIRKRPPRLPRPRPRPTTGPRP | 0.733
RRIRCRPPRLPRPRPRPDDVPRP | -0.0387
RRIRRRPPRLPRPRPRPQYAPRP | 0.0794
RRIRTRPPRLPRPRPRPKGRPRP | -0.219
RRIRERPPRLPRPRPRPVQAPRP | 0.014
RRIRARPPRLPRPRPRPYNIPRP | -0.159
RRIRNRPPRLPRPRPRPTCIPRP | -0.0808
RRIRFRPPRLPRPRPRPFLWPRP | -0.0874
RRIRNRPPRLPRPRPRPLSRPRP | -0.124
RRIRRRPPRLPRPRPRPAYQPRP | -0.289
RRIRNRPPRLPRPRPRPQCMPRP | 2.42
RRIRKRPPRLPRPRPRPQIIPRP | 0.0891
RRIRTRPPRLPRPRPRPDVMPRP | -0.00136
RRIRPRPPRLPRPRPRPMMGPRP | 0.0538
RRIRHRPPRLPRPRPRPCLRPRP | 0.0119
RRIRMRPPRLPRPRPRPGCCPRP | 1.36

Sequence | shrunken log2 fold change
RRIRDRPPRLPRPRPRPTHWPRP | 0.192
RRIRTRPPRLPRPRPRPRPRPRP | 0.81
RRIRARPPRLPRPRPRPVVEPRP | 0.322
RRIRWRPPRLPRPRPRPPFQPRP | 0.248
RRIRYRPPRLPRPRPRPIQVPRP | -0.0153
RRIRQRPPRLPRPRPRPKRRPRP | 0.0204
RRIRQRPPRLPRPRPRPEIEPRP | -0.00695
RRIRFRPPRLPRPRPRPNVFPRP | -0.108
RRIRIRPPRLPRPRPRPEEFPRP | -0.0304
RRIRNRPPRLPRPRPRPTITPRP | -0.455
RRIRGRPPRLPRPRPRPWANPRP | 0.0528
RRIRQRPPRLPRPRPRPCRCPRP | -0.0134
RRIRTRPPRLPRPRPRPFTFPRP | -0.187
RRIRERPPRLPRPRPRPNAKPRP | -0.134
RRIRGRPPRLPRPRPRPNCFPRP | 0.268
RRIRKRPPRLPRPRPRPTWKPRP | 0.107
RRIRWRPPRLPRPRPRPINEPRP | 0.402
RRIRVRPPRLPRPRPRPLTYPRP | -0.356
RRIRCRPPRLPRPRPRPLVEPRP | 0.102
RRIRLRPPRLPRPRPRPKRPPRP | -0.0353
RRIRQRPPRLPRPRPRPHGHPRP | -0.113
RRIRQRPPRLPRPRPRPGPWPRP | 0.479
RRIRWRPPRLPRPRPRPGCYPRP | -0.0343
RRIRARPPRLPRPRPRPGRIPRP | 0.148
RRIRYRPPRLPRPRPRPNWTPRP | -0.00491
